Ends that are not written are not given here.
Legend:
[1] = molecular target: T1, JAK2 WT peptide (JAK2 autophosphorylation site 1001LPQDKEYYKVKEP) (Homo sapiens, UniProt O60674); assay: ELISA binding of biotinylated JAK2 WT peptide to solid-phase peptides; conditions: FIG. 1A; ELISA, peptides coated on 96-well plates
T1 construct: made in house; host or cells: chemical synthesis (Fmoc)
Experimental: Binding assays: For ELISA binding assays Tkip and other peptides to be tested were bound to 96-well plates in 0.1 M carbonate binding buffer (pH 9.6) at a final concentration of 3 μg/well (50 μl). Wells were then washed three times with wash buffer containing 0.9% NaCl and 0.05% tween-20 in PBS and blocked with 2% gelatin and 0.05% tween-20 in PBS for 1 h at room temperature. Wells were then washed three times with wash buffer and incubated with various concentrations of biotinylated JAK2 WT peptide and biotinylated P-JAK2 WT peptide for 1 h at room temperature in blocking buffer. Following incubation, wells were washed five times with wash buffer to remove any unbound biotinylated peptides. Bound biotinylated peptides were detected by incubation with a 1:500 dilution of NEUTRAVIDIN biotin binding-protein conjugated with horseradish peroxidase (Molecular Probes, Eugene, Oreg.) in blocking buffer for 1 h at room temperature. Wells were then washed five times with wash buffer and developed with a solution of o-phenylenediamine (OPD) in stable peroxidase buffer (Pierce, Rockford, Ill.). The assay was stopped with the addition of 2 M H2SO4 (50 μl) to each well. Absorbance was measured using a 450 microplate reader (Bio-rad, Hercules, Calif.) at 490 nm. Control experiments were carried out as described above in the absence of immobilized peptides.

recombinant human JAK2 = molecular target: T2, recombinant human JAK2 (Homo sapiens, UniProt O60674); assay: In vitro JAK2 kinase assay (32P, SDS-PAGE, autoradiography); type: biochemical; conditions: peptide at 50 μM
T2 construct: purchased Upstate Biotechnology, Lake Placid, N.Y
Experimental: Determination of JAK2 autophosphorylation activity was performed in reaction mixtures containing recombinant human JAK2 immobilized on agarose beads (Upstate Biotechnology, Lake Placid, N.Y.), 1 μCi/μl of [^32P]γ-ATP (Amersham Biosciences, Piscataway, N.J.), and either Tkip or JAK 2 WT peptide incubated in kinase buffer (10 mM HEPES [pH 7.4], 50 mM sodium chloride, 0.1 mM sodium orthovanadate, 5 mM magnesium chloride, 5 mM manganese chloride). JAK2 kinase assays were performed in 35 μL reaction volumes containing 10.5 μL Tkip, 20 μL JAK2 agarose beads, 1 μL sIFNGR-1, and 3.5 μL [^32P]γ-ATP incubated at 30° C. for 30 min with intermittent agitation. […] EGFR, VEGFR, and JAK2 kinase reactions were terminated with the addition of 5 μl 6×SDS sample buffer (0.5 M Tris-HCl [pH 6.8], 36% glycerol, 10% SDS, 9.3% DTT, 0.012% bromophenol blue). Incubation of JAK2 agarose beads in SDS sample buffer (100° C.) was designed to elute bound proteins from the agarose beads. The reaction mixtures were separated on a 10% SDS polyacrilamide gel. Autoradiography was used to determine phosphorylation activity.

[2] = tested on: biotinylated JAK2 WT peptide binding to Tkip peptide; assay: ELISA peptide competition for biotinylated JAK2 WT binding to Tkip; parameters: species or system human; conditions: FIG. 1B; unlabeled competitor peptide
Experimental: Peptide competition experiments were conducted using peptides derived from the JAK tyrosine kinase family, vascular endothelial growth factor receptor (VEGFR), and cyclin dependent kinase (CDK) to compete with biotinylated JAK2 WT peptide for binding to Tkip. Binding of biotinylated JAK2 WT was determined as above, except that following Tkip peptide immobilization, washing, and blocking in blocking buffer for 1 hr at room temperature unlabeled competitors were added to wells and incubated for 30 min at varying concentrations before biotinylated JAK2 WT peptide was incubated for 1 hr in each well to determine the extent of competition with unlabeled peptides. Detection and analysis of binding was carried out as described above.

[3] = tested on: MHC class I expression on WISH cells; assay: Flow cytometry of IFN-γ induced MHC class I expression on WISH cells; type: cell-based, human
Experimental: Flow Cytometry: WISH fibroblast cells (2×10^6) were incubated for 48 h with media alone, 25 μM MuIFNγ(95–125) peptide, or lipophilic Tkip (LT) at varying concentrations (1 μM, 10 μM, 25 μM) in the presence or absence of 5000 units/ml IFN-γ in 6-well culture plates at 37° C. in a 5% CO2 atmosphere. Following incubation, cells were washed twice with PBS and harvested by trypsinization into two sets of 5-ml round bottom polystyrene tubes (Fisher, Pittsburgh, Pa.) and washed twice with PBS. For cell surface staining a direct immunofluorescence protocol was employed. […] The fluorescent-conjugated isotype antibody was used to determine background fluorescence by identifying nonspecific binding of the monoclonal antibody to WISH cells. […] WISH fibroblast cells were finally resuspended in 500 μl of PBS and analyzed on a FACScan fluorescence-activated cell sorter (Becton Dickinson, San Jose, Calif.). […] The red fluorescence of R-PE was excited at 488 nm. […] The fluorescence intensity of the negative controls were subtracted from the mean fluorescence for the R-PE labeled cells. […] Flow cytometry data were analyzed using CellQuest analysis software (Becton Dickinson, San Jose, Calif.).

T2 sequence (O60674 whole entry): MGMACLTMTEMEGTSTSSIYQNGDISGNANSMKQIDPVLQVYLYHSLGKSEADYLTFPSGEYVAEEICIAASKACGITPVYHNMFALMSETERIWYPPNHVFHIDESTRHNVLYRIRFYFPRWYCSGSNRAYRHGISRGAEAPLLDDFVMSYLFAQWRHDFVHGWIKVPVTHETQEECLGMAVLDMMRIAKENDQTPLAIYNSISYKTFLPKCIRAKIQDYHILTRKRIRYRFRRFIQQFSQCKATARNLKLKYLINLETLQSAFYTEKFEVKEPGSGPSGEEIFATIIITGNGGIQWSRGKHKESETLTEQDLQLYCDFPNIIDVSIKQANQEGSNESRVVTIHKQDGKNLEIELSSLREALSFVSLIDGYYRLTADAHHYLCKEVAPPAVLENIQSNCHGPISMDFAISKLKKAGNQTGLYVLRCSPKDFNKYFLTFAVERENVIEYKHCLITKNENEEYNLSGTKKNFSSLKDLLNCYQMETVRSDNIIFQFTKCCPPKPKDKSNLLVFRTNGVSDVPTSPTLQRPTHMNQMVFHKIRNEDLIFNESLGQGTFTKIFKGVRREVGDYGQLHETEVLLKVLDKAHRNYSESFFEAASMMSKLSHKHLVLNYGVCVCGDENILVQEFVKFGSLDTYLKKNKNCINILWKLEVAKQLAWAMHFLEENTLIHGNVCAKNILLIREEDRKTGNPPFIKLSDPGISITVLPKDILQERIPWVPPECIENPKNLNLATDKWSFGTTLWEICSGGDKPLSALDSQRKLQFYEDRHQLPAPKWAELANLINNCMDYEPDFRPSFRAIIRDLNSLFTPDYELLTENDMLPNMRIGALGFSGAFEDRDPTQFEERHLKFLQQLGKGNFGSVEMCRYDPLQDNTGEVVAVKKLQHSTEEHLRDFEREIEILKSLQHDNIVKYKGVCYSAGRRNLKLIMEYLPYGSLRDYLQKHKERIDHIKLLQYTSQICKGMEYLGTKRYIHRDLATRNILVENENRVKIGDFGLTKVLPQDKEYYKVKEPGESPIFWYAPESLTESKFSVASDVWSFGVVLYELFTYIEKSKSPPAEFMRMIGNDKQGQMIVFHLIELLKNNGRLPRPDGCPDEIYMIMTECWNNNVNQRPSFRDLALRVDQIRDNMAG

Substance | binding of biotinylated JAK2 WT peptide to solid-phase peptide [1] | inhibition of biotinylated JAK2 WT peptide binding to Tkip peptide [2] | further results
AKFEVNNPQVQRQAFNELIRVVHQLLPESSL (amino acid sequence of a peptide used for control purposes) [IFN-γ95–125] | negligible | – | –
EMLVLLMALKLLA (amino acid sequence of a peptide that can be used according to the present invention) | – | – | inhibition of JAK2 autophosphorylation (recombinant human JAK2): inhibited autophosphorylation of JAK2 (lane 7 of FIG. 4, upper panel), although it was not as effective as the Tkip peptide
KTEGVPSTAIREISLLKELNH (amino acid sequence of a peptide used for control purposes) [CDK 41–61, cyclin-dependent kinase, cyclin box peptide 41–61] | negligible | neither CDK 41–61 nor VEGFR 1208–1222, inhibited | –
LPQDKEYYKVKEP (amino acid sequence of a peptide used for control purposes) [JAK2 WT, JAK2 autophosphorylation site peptide, residues 1001-1013; control peptide, reference compound] | – | inhibited | inhibition of JAK2 autophosphorylation (recombinant human JAK2): had no effect; inhibition of JAK2 phosphorylation of IFNGR-1 (recombinant human JAK2): had no effect
NGVLFLMIFHFLG (amino acid sequence of a peptide that can be used according to the present invention) | – | – | inhibition of JAK2 phosphorylation of IFNGR-1 (recombinant human JAK2): did inhibit
SSDVRYVNAFKFM (amino acid sequence of a peptide used for control purposes) [VEGFR 1208–1222, vascular endothelial growth factor receptor autophosphorylation peptide] | negligible | neither CDK 41–61 nor VEGFR 1208–1222, inhibited | –
control lipophilic peptide (IFN-γ 95–125): lipophilic irrelevant peptide MuIFN-γ(95–125) (AKFEVNNPQVQRQAFNELIRVVHQLLPESSL; also: lipophilic group, site not given here; UniProt P01580 117-147, looked up, fragment) [reference compound] | – | – | effect on IFN-γ upregulation of MHC class I expression ([3]; 10 μM or 25 μM Tkip (control 25 μM), 5000 U/ml human IFN-γ, 48 h): had no effect
human IFN-γ: human gamma interferon cytokine used as stimulus | – | – | increase in MHC class I as per FACS analysis ([3]; 5000 U/ml): over 3 fold

Reference: patent US7189694B2, “Inhibitors of autophosphorylation protein kinases” (University of Florida Research Foundation, Inc., priority 2003, dated 2007)
